Target: cLUC-LcMYB111 (litchi)

dual-luciferase reporter (LUC/REN): activation of proLcFLS-A when LcMYB111 was co-infiltrated with LcHY5 (untagged effectors): 18.8 fold
dual-luciferase reporter (LUC/REN): activation of proLcFLS-B when LcMYB111 was co-infiltrated with LcHY5 (untagged effectors): 5.78 fold
Substance: LcHY5-nLUC (natural protein)

— publication PMC10706726
